In patent publication US20120316071A1 (published 2012):
Changes are numbered by the printed parent chain. In names and notes the source's numbering stands.

B1: Fab VH5-51_IGHD5-18*01>3_IGHJ4*01 G100K/G104T & V3-4_IGLJ1*01 V91I (Fab, V domains shown)
VH: EVQLVQSGAEVKKPGESLKISCKGSGYSFTSYWIGWVRQMPGKGLEWMGIIYPGDSDTRYSPSFQGQVTISADKSISTAYLQWSSLKASDTAMYYCARRKYSYTYDYFDYWGQGTLVTVSS
VL: QTVVTQEPSFSVSPGGTVTLTCGLSSGSVSTSYYPSWYQQTPGQAPRTLIYSTNTRSSGVPDRFSGSILGNKAALTITGAQADDESDYYCILYMGSGISYVFGTGTKVTVL
notes: Fab; expressed with CH1 (His and Flag tags) and lambda CL from the expression plasmids; also called H:KT & V91I
B2: Fab VH5-51_IGHD5-18*01>3_IGHJ4*01 G100K/G104T & V3-4_IGLJ1*01 V91S (Fab, V domains shown)
VH: B1 VH
VL: B1 VL with I91S
notes: Fab; expressed with CH1 (His and Flag tags) and lambda CL from the expression plasmids; also called H:KT & V91S
B3: Fab VH5-51_IGHD5-18*01>3_IGHJ4*01 G100K/G104T & V3-4_IGLJ1*01 V91W (Fab, V domains shown)
VH: B1 VH
VL: B1 VL with I91W
notes: Fab; expressed with CH1 (His and Flag tags) and lambda CL from the expression plasmids; also called H:KT & V91W
B4: Fab VH5-51_IGHD5-18*01>3_IGHJ4*01 G100K/G104T & V3-4_IGLJ1*01 V91R (Fab, V domains shown)
VH: B1 VH
VL: B1 VL with I91R
notes: Fab; expressed with CH1 (His and Flag tags) and lambda CL from the expression plasmids; also called H:KT & V91R
B5: Fab VH5-51_IGHD5-18*01>3_IGHJ4*01 G100K/G104T & V3-4_IGLJ1*01 V91L (Fab, V domains shown)
VH: B1 VH
VL: B1 VL with I91L
notes: Fab; expressed with CH1 (His and Flag tags) and lambda CL from the expression plasmids; also called H:KT & V91L
B6: Fab VH5-51_IGHD5-18*01>3_IGHJ4*01 G100K/G104T & V3-4_IGLJ1*01 V91N (Fab, V domains shown)
VH: B1 VH
VL: B1 VL with I91N
notes: Fab; expressed with CH1 (His and Flag tags) and lambda CL from the expression plasmids; also called H:KT & V91N
B7: Fab VH5-51_IGHD5-18*01>3_IGHJ4*01 G100K/G104T & V3-4_IGLJ1*01 V91T (Fab, V domains shown)
VH: B1 VH
VL: B1 VL with I91T
notes: Fab; expressed with CH1 (His and Flag tags) and lambda CL from the expression plasmids; also called H:KT & V91T
B8: Fab VH1-46_IGHD6-6*01_IGHJ1*01 S102A/S103P/S104F/H111F G56H & L6_IGKJ1*01 (Fab, V domains shown)
VH: QVQLVQSGAEVKKPGASVKVSCKASGYTFTSYYMHWVRQAPGQGLEWMGIINPSGHSTSYAQKFQGRVTMTRDTSTSTVYMELSSLRSEDTAVYYCAREEYAPFSAEYFQFWGQGTLVTVSS
VL: not shown
notes: Fab from E. coli; CH1 (with His and Flag tags) and kappa CL come from the expression plasmids; also called APFF G56H
B9: Fab VH1-46_IGHD6-6*01_IGHJ1*01 S102A/S103P/S104F/H111F N52Y & L6_IGKJ1*01 (Fab, V domains shown)
VH: B8 VH with N52Y, H56G
VL: not shown
notes: Fab from E. coli; CH1 (with His and Flag tags) and kappa CL come from the expression plasmids; also called APFF N52Y
B10: Fab VH1-46_IGHD6-6*01_IGHJ1*01 S102A/S103P/S104F/H111F G56I & L6_IGKJ1*01 (Fab, V domains shown)
VH: B8 VH with H56I
VL: not shown
notes: Fab from E. coli; CH1 (with His and Flag tags) and kappa CL come from the expression plasmids; also called APFF G56I
B11: Fab VH1-46_IGHD6-6*01_IGHJ1*01 S102A/S103P/S104F/H111F I51T/N52V & L6_IGKJ1*01 (Fab, V domains shown)
VH: B8 VH with I51T, N52V, H56G
VL: not shown
notes: Fab from E. coli; CH1 (with His and Flag tags) and kappa CL come from the expression plasmids; also called APFF I51T/N52V
B12: Fab VH1-46_IGHD6-6*01_IGHJ1*01 S102A/S103P/S104F/H111F G56W & L6_IGKJ1*01 (Fab, V domains shown)
VH: B8 VH with H56W
VL: not shown
notes: Fab from E. coli; CH1 (with His and Flag tags) and kappa CL come from the expression plasmids; also called APFF G56W
B13: Fab VH1-46_IGHD6-6*01_IGHJ1*01 S102A/S103P/S104F/H111F N52R & L6_IGKJ1*01 (Fab, V domains shown)
VH: B8 VH with N52R, H56G
VL: not shown
notes: Fab from E. coli; CH1 (with His and Flag tags) and kappa CL come from the expression plasmids; also called APFF N52R
B14: Fab VH1-46_IGHD6-6*01_IGHJ1*01 S102A/S103P/S104F/H111F N52V & L6_IGKJ1*01 (Fab, V domains shown)
VH: B8 VH with N52V, H56G
VL: not shown
notes: Fab from E. coli; CH1 (with His and Flag tags) and kappa CL come from the expression plasmids; also called APFF N52V
B15: Fab VH1-46_IGHD6-6*01_IGHJ1*01 S102A/S103P/S104F/H111F G56S & L6_IGKJ1*01 (Fab, V domains shown)
VH: B8 VH with H56S
VL: not shown
notes: Fab from E. coli; CH1 (with His and Flag tags) and kappa CL come from the expression plasmids; also called APFF G56S
B16: Fab VH1-46_IGHD6-6*01_IGHJ1*01 S102A/S103P/S104F/H111F N52T & L6_IGKJ1*01 (Fab, V domains shown)
VH: B8 VH with N52T, H56G
VL: not shown
notes: Fab from E. coli; CH1 (with His and Flag tags) and kappa CL come from the expression plasmids; also called APFF N52T
B17: Fab VH1-46_IGHD6-6*01_IGHJ1*01 S102A/S103P/S104F/H111F G56K & L6_IGKJ1*01 (Fab, V domains shown)
VH: B8 VH with H56K
VL: not shown
notes: Fab from E. coli; CH1 (with His and Flag tags) and kappa CL come from the expression plasmids; also called APFF G56K
B18: Fab VH1-46_IGHD6-6*01_IGHJ1*01 S102A/S103P/S104F/H111F N52P & L6_IGKJ1*01 (Fab, V domains shown)
VH: B8 VH with N52P, H56G
VL: not shown
notes: Fab from E. coli; CH1 (with His and Flag tags) and kappa CL come from the expression plasmids; also called APFF N52P

The binders below were run against T1, Recombinant Human DLL4 (delta-like protein 4) (human, UniProt Q9NR61 27-524) (assay: ELISA, DLL4-coated plate, 100 nM Fab).
T1 construct: Bought recombinant human DLL4 (R&D Systems Cat#1506-D4/CF); also called rHuman DLL4

Row | Binder | ELISA Signal [100 nM Fab]
1 | B1 | 0.01
2 | B2 | 0.01
3 | B3 | 0
4 | B4 | 0
5 | B5 | 0.02
6 | B6 | 0
7 | B7 | 0.01

The binders below were run against T2, Recombinant Human DLL4 (delta-like protein 4) (human, UniProt Q9NR61 27-524) (assay: ELISA on plate-coated DLL4, 100 nM Fab).
T2 construct: Bought recombinant protein (R&D Systems Cat#1506-D4/CF); also called rHuman DLL4

Row | Binder | ELISA signal
8 | B8 | 0.65
9 | B9 | 0.01
10 | B10 | 0.23
11 | B11 | 1.23
12 | B12 | 0.54
13 | B13 | 0.01
14 | B14 | 0.24
15 | B15 | 0.18
16 | B16 | 0.61
17 | B17 | 0.19
18 | B18 | 0.18

These binders were tested against T1, Recombinant Human DLL4 (delta-like …) (assay: ECL (MSD) binding assay, immobilised DLL4, 10 nM Fab;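 also: fab binding read as electrochemiluminescence via a TAG-labelled detection antibody, 1 h incubations at 20 °C, antigen signal compared with each well's blank, ratio of at least 4 scored as binder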).

Row | Binder | ECL Signal [10 nM Fab]
19 | B1 | 51200
20 | B2 | 32100
21 | B3 | 12500
22 | B4 | 13400
23 | B5 | 41600
24 | B6 | 46700
25 | B7 | 32700

These binders were tested against T2, Recombinant Human DLL4 (delta-like …) (assay: ECL 96-well plate assay on immobilised DLL4, 10 nM Fab).

Row | Binder | ECL signal
26 | B8 | 68800
27 | B9 | 24500
28 | B10 | 77000
29 | B11 | 71700
30 | B12 | 69600
31 | B13 | 21600
32 | B14 | 64700
33 | B15 | 65700
34 | B16 | 66800
35 | B17 | 66200
36 | B18 | 44800
